In publication PMC7688132, “Preparation and characterization of monoclonal antibodies recognizing two CD4 isotypes of Microminipigs” (PLoS ONE, 2020):

Key:
[1] = target: T1, CD4.A, endogenous in CD4.A (+/+) Microminipig cells (Sus scrofa, Microminipig, allele CD4.A …, UniProt A0A0M3VH80, strain); assay: flow cytometry on cells; CD4.A (+/+) and CD4.B (+/+) swine PBMCs stained with the purified mAb and anti-mouse IgG-APC (b1D7) or anti-mouse IgG2a-FITC (x1E10); lymphocyte gate; isotype control; settings: one partner purified
T1 construct: CD4 allele CD4.A of the Microminipig, as in animals genotyped CD4.A (+/+) by PCR-RFLP; allele mRNA LC064059; also called CD4.A (+/+) swine PBMCs; CD4.A (+/+) spleen; source: endogenous, CD4.A (+/+) Microminipig PBMCs and spleen tissue sections

[2] = target: T2, CD4.B, endogenous in CD4.B (+/+) Microminipig cells (Sus scrofa, Microminipig, allele CD4.B …, UniProt A0A0M4UHP2, strain); assay: as above; settings: one partner purified
T2 construct: CD4 allele CD4.B of the Microminipig, as in animals genotyped CD4.B (+/+) by PCR-RFLP; allele mRNA LC064060; also called CD4.B (+/+) swine PBMCs; CD4.B (+/+) spleen; source: endogenous, CD4.B (+/+) Microminipig PBMCs and spleen tissue sections

[3] = target: T3, swine (Microminipig) CD4.B expressed on transfected HEK293 cells (Sus scrofa, Microminipig, allele CD4.B, UniProt A0A0M4UHP2, strain); assay: flow cytometry on cells; HEK293 transfected with CD4.A or CD4.B (mVenus co-expressed) stained with hybridoma clone supernatant, then anti-mouse IgG-APC; settings: partners not purified
T3 construct: CD4 allele CD4.B of the Microminipig; five replacements between the alleles are printed (T61I, G65R, G66S, G68R, T73K); also called CD4.B transfectant; source: HEK293, transfected (S/MAR episomal vector, mVenus co-expressed), on cells

[4] = target: T4, swine (Microminipig) CD4.A expressed on transfected HEK293 cells (Sus scrofa, Microminipig, allele CD4.A, UniProt A0A0M3VH80, strain); assay: as above; settings: partners not purified
T4 construct: CD4 allele CD4.A of the Microminipig; also called CD4.A transfectant; source: HEK293, transfected (S/MAR episomal vector, mVenus co-expressed), on cells

[5] = target: T3, swine (Microminipig) CD4.B expressed on …; assay: flow cytometry on cells; HEK293 transfected with CD4.A or CD4.B stained with biotinylated x1E10 and streptavidin PE-Cy7; settings: one partner purified
[6] = target: T4, swine (Microminipig) CD4.A expressed on …; assay: as above; settings: one partner purified

Measured: binding result

B1: anti-swine CD4.AB mAb x1E10 (antibody, V domains shown)
VH: DVQLQESGPGLVKPSQSLSLTCTVTGYSIISDYAWNWIRQFPGNKMEWMGYILYSGTTNYNPSLKSRISITRDTSKNQFFLQLNSVTTEDTATYYCARRTYYDYDYYGMDYWGQGTSVTVSS
VL: DVLMTQIPLSLPVSLGDQASISCRSSQTIVHSLGNTYLEWYLQKPGQSPKLLIYKVSNRFSGVPDRFIGSGSGTDFTLKITRVEAEDLGVYYCFQGSHVPWTFGGGTKLEIK
notes: IgG2a kappa; also called x1E10 (1C3-1E8); anti-CD4AB mAb; source: mouse hybridoma (BALB/c splenocytes fused with P3-X63-Ag8-U1), clone supernatant; purified mAb
binds: [1] | [2] | [3] | [4]

B2: biotinylated x1E10 mAb (antibody, V domains shown)
VH: DVQLQESGPGLVKPSQSLSLTCTVTGYSIISDYAWNWIRQFPGNKMEWMGYILYSGTTNYNPSLKSRISITRDTSKNQFFLQLNSVTTEDTATYYCARRTYYDYDYYGMDYWGQGTSVTVSS
VL: DVLMTQIPLSLPVSLGDQASISCRSSQTIVHSLGNTYLEWYLQKPGQSPKLLIYKVSNRFSGVPDRFIGSGSGTDFTLKITRVEAEDLGVYYCFQGSHVPWTFGGGTKLEIK
notes: as the heavy chain of m2; as the light chain of m2; IgG2a kappa; same antibody as m2 with a biotin label; also called x1E10 labeled with biotin; source: mouse hybridoma x1E10; biotinylated with Biotin Labeling Kit (Cosmo Bio)
binds: [5] | [6]
